# According to the supplement of paper PMC10065799, “High-throughput profiling of sequence recognition by tyrosine kinases and SH2 domains using bacterial peptide display” (eLife, 2023):
# Target: Fes (UniProt P07332)
# Assay: phosphorylation enrichment, bacterial display (enrichment ratio); higher = better substrate or ligand; peptides without Tyr show the background
# 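Note: 11-residue human phosphosite peptides and single-mutation variants displayed on the E. coli surface, counted by deep sequencing, each peptide's frequency after selection divided by its frequency in the unselected input library; frequency after pTyr selection over input frequency; kinase dosed for 20-30% of maximal phosphorylation in three min.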
# Sequence of Fes (P07332 whole entry, looked up): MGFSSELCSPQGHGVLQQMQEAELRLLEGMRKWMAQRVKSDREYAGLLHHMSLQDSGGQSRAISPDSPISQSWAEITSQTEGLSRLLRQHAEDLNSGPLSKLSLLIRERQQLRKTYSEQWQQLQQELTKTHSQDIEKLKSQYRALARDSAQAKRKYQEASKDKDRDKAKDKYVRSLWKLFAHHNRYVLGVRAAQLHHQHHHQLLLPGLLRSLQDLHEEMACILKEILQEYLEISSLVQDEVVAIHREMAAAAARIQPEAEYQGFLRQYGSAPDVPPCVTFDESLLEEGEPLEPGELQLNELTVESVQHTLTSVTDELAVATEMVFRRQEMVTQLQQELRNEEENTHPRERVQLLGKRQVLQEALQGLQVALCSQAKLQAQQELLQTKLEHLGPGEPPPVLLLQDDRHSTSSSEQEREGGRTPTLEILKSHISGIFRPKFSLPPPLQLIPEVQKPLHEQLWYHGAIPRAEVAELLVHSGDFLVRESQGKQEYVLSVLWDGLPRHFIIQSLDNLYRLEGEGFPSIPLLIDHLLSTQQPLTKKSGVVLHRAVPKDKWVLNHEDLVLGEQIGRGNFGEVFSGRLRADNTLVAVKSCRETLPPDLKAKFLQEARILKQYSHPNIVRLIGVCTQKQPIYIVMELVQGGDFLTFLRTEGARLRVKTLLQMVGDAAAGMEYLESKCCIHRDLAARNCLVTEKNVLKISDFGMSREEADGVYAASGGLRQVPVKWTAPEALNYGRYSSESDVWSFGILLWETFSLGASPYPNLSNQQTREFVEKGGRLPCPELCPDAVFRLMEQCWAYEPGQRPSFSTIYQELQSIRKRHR
row,Sequence,phosphorylation enrichment
1,ESAAIYNPVIF [RHO_Y301_K296E_YF],1.25
2,IKKFKYGIEEH [GJA1_Y137],0.697
3,PMQLPHDSTWE [PDGFRB_Y589_Y589H],1.96
4,LRWREYQRQDF [PRKRIP1_Y90_R87W_YF],4.93
5,KVDKEYEVGVR [GHR_Y226_R229G],0.796
6,GIVKAYYVHAR [AIPL1_Y267_R270H],0.736
7,VFAADYFKLLG [ROR2_Y645_YF],0.643
8,SSYPDYLAAVD [GLB1_Y154_D151Y],1.05
9,EESSHYSTEKE [ADAR_Y587],1.47
10,NGRQCYSCKGN [PLAUR_Y217],0.456
11,TTKGSYSLFVR [HCK_Y180_S183Y_YF],1.09
12,FLAVGYHKPFI [IDS_Y225_H229Y_YF],0.8
13,QDDFSYPSRQM [LDLR_Y847_G844D_YF],0.826
14,EVLKNYNQQKD [GOLGA4_Y1551],1.07
15,LSQDVYEEDSY [RET_Y900_R897Q],1.71
16,IDDNQYAFLKA [HNF4A_Y286_E285Q_YF],0.839
17,CTNPRYLAAGS [RABL3_Y185],0.767

row,Sequence,phosphorylation enrichment
1,TLSGIYQFIIA [FOXL2_Y81_YF],3.16
2,RPSRQYATRDV [SCAMP3_Y35_L38R],0.498
3,TCFDKYTGSTY [FN1_Y101_N104S],0.737
4,ASLEAYCKHKF [RXRA_Y403_YF],1.07
5,TARREYMHSPS [CPOX_Y429_W427R],0.656
6,PEACDYGLGGG [GSTO1_Y239],1.34
7,RFLERYIFNRQ [HLA-DPB1_Y57_E62Q_YF],1.63
8,DDPRTYQKFGF [OAS1_Y362_R361T_YF],0.928
9,LIYTNYEVGKD [GSTP1_Y112_A114V],1.96
10,ANNEFYFRVCA,1.43
11,TRDVNYGWTIR [MT-CYB_Y75_I78T],0.969
12,LGKGSYAKVKS [TSSK2_Y23],1.83
13,FAFQLYDLDPD [CHP2_Y123_R127P_YF],1.26
14,EKEQNYDLTEV [ECD_Y448],1.31
15,GMTLSYLFREP [NDUFS8_Y74],0.877
16,SAGSSYSISSI [PAX5_Y179_G183S],0.686

# Test system: AncSZ
# Assay: as above
row,Sequence,phosphorylation enrichment
1,ESAAIYNPVIF [RHO_Y301_K296E_YF],1.03
2,IKKFKYGIEEH [GJA1_Y137],0.836
3,PMQLPHDSTWE [PDGFRB_Y589_Y589H],2.22
4,LRWREYQRQDF [PRKRIP1_Y90_R87W_YF],4.24
5,KVDKEYEVGVR [GHR_Y226_R229G],0.752
6,GIVKAYYVHAR [AIPL1_Y267_R270H],0.732
7,VFAADYFKLLG [ROR2_Y645_YF],0.819
8,SSYPDYLAAVD [GLB1_Y154_D151Y],1.36
9,EESSHYSTEKE [ADAR_Y587],1.14
10,NGRQCYSCKGN [PLAUR_Y217],0.481
11,TTKGSYSLFVR [HCK_Y180_S183Y_YF],1
12,FLAVGYHKPFI [IDS_Y225_H229Y_YF],0.701
13,QDDFSYPSRQM [LDLR_Y847_G844D_YF],0.791
14,EVLKNYNQQKD [GOLGA4_Y1551],0.949
15,LSQDVYEEDSY [RET_Y900_R897Q],1.53
16,IDDNQYAFLKA [HNF4A_Y286_E285Q_YF],0.823
17,CTNPRYLAAGS [RABL3_Y185],0.794

row,Sequence,phosphorylation enrichment
1,TLSGIYQFIIA [FOXL2_Y81_YF],1.81
2,RPSRQYATRDV [SCAMP3_Y35_L38R],0.598
3,TCFDKYTGSTY [FN1_Y101_N104S],0.843
4,ASLEAYCKHKF [RXRA_Y403_YF],0.83
5,TARREYMHSPS [CPOX_Y429_W427R],0.489
6,PEACDYGLGGG [GSTO1_Y239],1.78
7,RFLERYIFNRQ [HLA-DPB1_Y57_E62Q_YF],1.57
8,DDPRTYQKFGF [OAS1_Y362_R361T_YF],0.825
9,LIYTNYEVGKD [GSTP1_Y112_A114V],2.37
10,ANNEFYFRVCA,1.28
11,TRDVNYGWTIR [MT-CYB_Y75_I78T],1.39
12,LGKGSYAKVKS [TSSK2_Y23],0.884
13,FAFQLYDLDPD [CHP2_Y123_R127P_YF],1.26
14,EKEQNYDLTEV [ECD_Y448],1.31
15,GMTLSYLFREP [NDUFS8_Y74],0.763
16,SAGSSYSISSI [PAX5_Y179_G183S],0.65

# Target: Fyn (UniProt P06241)
# Assay: as above
# Sequence of Fyn (P06241 whole entry, looked up): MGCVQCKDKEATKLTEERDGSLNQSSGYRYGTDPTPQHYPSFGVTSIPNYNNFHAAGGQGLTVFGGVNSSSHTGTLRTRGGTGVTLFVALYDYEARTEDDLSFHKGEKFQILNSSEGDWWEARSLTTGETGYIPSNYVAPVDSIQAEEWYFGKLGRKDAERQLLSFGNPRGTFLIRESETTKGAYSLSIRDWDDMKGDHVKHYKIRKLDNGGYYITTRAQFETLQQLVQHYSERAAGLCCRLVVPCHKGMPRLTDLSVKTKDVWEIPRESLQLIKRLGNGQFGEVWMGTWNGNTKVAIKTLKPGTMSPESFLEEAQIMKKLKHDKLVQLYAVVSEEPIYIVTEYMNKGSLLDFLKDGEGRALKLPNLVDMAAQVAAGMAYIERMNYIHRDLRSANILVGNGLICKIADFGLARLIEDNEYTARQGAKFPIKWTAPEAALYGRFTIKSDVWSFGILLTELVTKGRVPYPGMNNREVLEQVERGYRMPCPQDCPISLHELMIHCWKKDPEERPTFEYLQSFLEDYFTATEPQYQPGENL
row,Sequence,phosphorylation enrichment
1,ESAAIYNPVIF [RHO_Y301_K296E_YF],8.03
2,IKKFKYGIEEH [GJA1_Y137],0.374
3,PMQLPHDSTWE [PDGFRB_Y589_Y589H],0.582
4,LRWREYQRQDF [PRKRIP1_Y90_R87W_YF],1.01
5,KVDKEYEVGVR [GHR_Y226_R229G],0.401
6,GIVKAYYVHAR [AIPL1_Y267_R270H],0.418
7,VFAADYFKLLG [ROR2_Y645_YF],0.417
8,SSYPDYLAAVD [GLB1_Y154_D151Y],0.495
9,EESSHYSTEKE [ADAR_Y587],0.633
10,NGRQCYSCKGN [PLAUR_Y217],0.324
11,TTKGSYSLFVR [HCK_Y180_S183Y_YF],0.418
12,FLAVGYHKPFI [IDS_Y225_H229Y_YF],0.38
13,QDDFSYPSRQM [LDLR_Y847_G844D_YF],0.414
14,EVLKNYNQQKD [GOLGA4_Y1551],0.443
15,LSQDVYEEDSY [RET_Y900_R897Q],0.782
16,IDDNQYAFLKA [HNF4A_Y286_E285Q_YF],0.604
17,CTNPRYLAAGS [RABL3_Y185],0.426

row,Sequence,phosphorylation enrichment
1,TLSGIYQFIIA [FOXL2_Y81_YF],6.83
2,RPSRQYATRDV [SCAMP3_Y35_L38R],0.396
3,TCFDKYTGSTY [FN1_Y101_N104S],0.469
4,ASLEAYCKHKF [RXRA_Y403_YF],0.468
5,TARREYMHSPS [CPOX_Y429_W427R],0.63
6,PEACDYGLGGG [GSTO1_Y239],0.691
7,RFLERYIFNRQ [HLA-DPB1_Y57_E62Q_YF],0.535
8,DDPRTYQKFGF [OAS1_Y362_R361T_YF],0.717
9,LIYTNYEVGKD [GSTP1_Y112_A114V],11.9
10,ANNEFYFRVCA,0.483
11,TRDVNYGWTIR [MT-CYB_Y75_I78T],0.441
12,LGKGSYAKVKS [TSSK2_Y23],1.37
13,FAFQLYDLDPD [CHP2_Y123_R127P_YF],2.84
14,EKEQNYDLTEV [ECD_Y448],0.544
15,GMTLSYLFREP [NDUFS8_Y74],0.397
16,SAGSSYSISSI [PAX5_Y179_G183S],0.434

# Target: Jak2 (UniProt O60674)
# Assay: as above
# Sequence of Jak2 (O60674 whole entry, looked up): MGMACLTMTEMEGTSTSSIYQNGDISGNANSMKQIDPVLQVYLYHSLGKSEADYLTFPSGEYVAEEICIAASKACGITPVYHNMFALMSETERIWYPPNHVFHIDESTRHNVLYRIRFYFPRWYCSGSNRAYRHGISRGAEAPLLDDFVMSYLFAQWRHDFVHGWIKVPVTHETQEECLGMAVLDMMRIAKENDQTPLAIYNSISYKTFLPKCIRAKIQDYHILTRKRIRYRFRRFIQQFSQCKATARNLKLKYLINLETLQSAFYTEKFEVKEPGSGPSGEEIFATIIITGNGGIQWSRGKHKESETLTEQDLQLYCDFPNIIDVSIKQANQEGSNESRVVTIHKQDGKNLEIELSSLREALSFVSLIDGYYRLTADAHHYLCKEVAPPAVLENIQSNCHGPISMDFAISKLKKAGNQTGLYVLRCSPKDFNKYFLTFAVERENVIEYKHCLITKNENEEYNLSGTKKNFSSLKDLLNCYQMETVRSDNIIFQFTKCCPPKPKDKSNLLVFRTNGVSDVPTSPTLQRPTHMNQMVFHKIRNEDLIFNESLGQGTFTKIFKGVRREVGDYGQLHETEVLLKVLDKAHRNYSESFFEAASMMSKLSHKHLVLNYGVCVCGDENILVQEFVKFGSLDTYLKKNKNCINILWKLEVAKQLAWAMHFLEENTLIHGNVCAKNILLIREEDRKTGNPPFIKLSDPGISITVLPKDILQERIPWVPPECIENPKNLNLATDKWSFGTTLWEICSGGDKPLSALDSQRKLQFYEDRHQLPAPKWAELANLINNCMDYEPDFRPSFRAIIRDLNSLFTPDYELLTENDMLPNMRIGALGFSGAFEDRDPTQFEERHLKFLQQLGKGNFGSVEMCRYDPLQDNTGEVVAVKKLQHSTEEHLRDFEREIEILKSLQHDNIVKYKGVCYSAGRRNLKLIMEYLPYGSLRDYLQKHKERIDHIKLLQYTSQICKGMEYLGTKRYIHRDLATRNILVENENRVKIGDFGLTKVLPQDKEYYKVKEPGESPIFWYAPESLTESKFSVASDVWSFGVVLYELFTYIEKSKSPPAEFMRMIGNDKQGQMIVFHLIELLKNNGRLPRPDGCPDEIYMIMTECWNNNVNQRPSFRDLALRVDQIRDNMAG
row,Sequence,phosphorylation enrichment
1,ESAAIYNPVIF [RHO_Y301_K296E_YF],0.707
2,IKKFKYGIEEH [GJA1_Y137],0.582
3,PMQLPHDSTWE [PDGFRB_Y589_Y589H],1.34
4,LRWREYQRQDF [PRKRIP1_Y90_R87W_YF],6.28
5,KVDKEYEVGVR [GHR_Y226_R229G],0.553
6,GIVKAYYVHAR [AIPL1_Y267_R270H],0.866
7,VFAADYFKLLG [ROR2_Y645_YF],7.31
8,SSYPDYLAAVD [GLB1_Y154_D151Y],0.994
9,EESSHYSTEKE [ADAR_Y587],0.658
10,NGRQCYSCKGN [PLAUR_Y217],0.574
11,TTKGSYSLFVR [HCK_Y180_S183Y_YF],0.742
12,FLAVGYHKPFI [IDS_Y225_H229Y_YF],1.29
13,QDDFSYPSRQM [LDLR_Y847_G844D_YF],0.674
14,EVLKNYNQQKD [GOLGA4_Y1551],0.969
15,LSQDVYEEDSY [RET_Y900_R897Q],1.76
16,IDDNQYAFLKA [HNF4A_Y286_E285Q_YF],0.709
17,CTNPRYLAAGS [RABL3_Y185],0.915

row,Sequence,phosphorylation enrichment
1,TLSGIYQFIIA [FOXL2_Y81_YF],1.2
2,RPSRQYATRDV [SCAMP3_Y35_L38R],0.352
3,TCFDKYTGSTY [FN1_Y101_N104S],0.747
4,ASLEAYCKHKF [RXRA_Y403_YF],0.697
5,TARREYMHSPS [CPOX_Y429_W427R],0.468
6,PEACDYGLGGG [GSTO1_Y239],1.11
7,RFLERYIFNRQ [HLA-DPB1_Y57_E62Q_YF],1.71
8,DDPRTYQKFGF [OAS1_Y362_R361T_YF],0.773
9,LIYTNYEVGKD [GSTP1_Y112_A114V],1.33
10,ANNEFYFRVCA,1.39
11,TRDVNYGWTIR [MT-CYB_Y75_I78T],0.834
12,LGKGSYAKVKS [TSSK2_Y23],1.54
13,FAFQLYDLDPD [CHP2_Y123_R127P_YF],1.25
14,EKEQNYDLTEV [ECD_Y448],1.06
15,GMTLSYLFREP [NDUFS8_Y74],0.848
16,SAGSSYSISSI [PAX5_Y179_G183S],0.697
